The assay has as its target T1, human TLR5 (Homo sapiens, UniProt O60602).
T1 construct: host or cells: HEK293
In words: NF-κB activation (secreted alkaline phosphatase reporter) in HEK293 cells expressing human TLR5. Format: cell-based. The note with it: HEK293/hTLR5 cell line; at 100 ng/mL; 16-20 hours. As to the method:
Toll-like receptors (TLR) are known to interact with a number of natural and synthetic molecules that can function as immune adjuvants. Examples of these molecules are Poly (I:C) polynucleotides, lipopolysaccharide and CpG-containing polynucleotides. The interaction of non-DNA base-containing polynucleotides (SEQ ID NOs: 1-3) to interact with TLR and induce down-stream signaling was tested by assessing NF-κB activation in HEK293 cells expressing human TLR2, 3, 4, 5, 7, 8 and 9. TLR engagement was determined by measurement of secreted alkaline phosphatase, under the control of a reporter inducible by NF-κB. Appropriate positive controls were used for each TLR. The non-DNA base-containing polynucleotides were dissolved in sterile water at a concentration of 100 μg/mL, and used at a final concentration of 10 μg/mL. HEK293 cells containing the appropriate TLR and NF-κB reporting system (InvivoGen, San Diego, Calif., USA) were placed in wells of 96 well plates (25,000-50,000 cells, in a final volume of 200 μL medium designed for the detection of NF-κB induced secreted alkaline phosphatase expression), and incubated with non-DNA base-containing polynucleotides or positive controls for 16-20 hours. TLR activating activity was determined by measurement of absorbance at 650 nm wavelength using a Coulter AD340C absorbance detector. The results shown are expressed as Optical Density (OD).

T1 sequence (O60602 21-858): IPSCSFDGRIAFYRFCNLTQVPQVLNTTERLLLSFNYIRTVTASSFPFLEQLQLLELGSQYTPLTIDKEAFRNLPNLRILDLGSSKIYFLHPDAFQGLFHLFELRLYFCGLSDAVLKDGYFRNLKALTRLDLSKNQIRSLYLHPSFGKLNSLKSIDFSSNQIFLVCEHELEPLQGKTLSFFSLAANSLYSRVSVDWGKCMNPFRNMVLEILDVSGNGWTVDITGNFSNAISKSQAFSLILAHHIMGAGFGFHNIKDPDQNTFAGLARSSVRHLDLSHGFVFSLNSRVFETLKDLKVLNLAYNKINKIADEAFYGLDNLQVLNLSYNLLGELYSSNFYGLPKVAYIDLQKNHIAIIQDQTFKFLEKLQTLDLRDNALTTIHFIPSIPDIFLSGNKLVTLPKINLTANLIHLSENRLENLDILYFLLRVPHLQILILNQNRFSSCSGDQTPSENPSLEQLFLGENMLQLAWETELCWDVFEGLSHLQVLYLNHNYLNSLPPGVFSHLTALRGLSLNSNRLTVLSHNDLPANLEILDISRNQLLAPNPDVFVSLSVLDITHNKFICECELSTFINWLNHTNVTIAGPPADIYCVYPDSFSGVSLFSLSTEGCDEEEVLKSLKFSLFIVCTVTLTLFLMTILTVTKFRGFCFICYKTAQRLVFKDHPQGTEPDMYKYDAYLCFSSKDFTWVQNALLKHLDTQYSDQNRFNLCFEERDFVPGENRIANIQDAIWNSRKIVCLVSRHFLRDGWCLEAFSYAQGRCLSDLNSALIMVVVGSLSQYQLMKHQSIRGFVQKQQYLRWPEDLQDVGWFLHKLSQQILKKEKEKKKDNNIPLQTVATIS

B1: S. typhimurium flagellin: hTLR5 positive control (protein)
chain: AQVINTNSLSLLTQNNLNKSQSALGTAIERLSSGLRINSAKDDAAGQAIANRFTANIKGLTQASRNANDGISIAQTTEGALNEINNNLQRVRELAVQSANSTNSQSDLDSIQAEITQRLNEIDRVSGQTQFNGVKVLAQDNTLTIQVGANDGETIDIDLKQINSQTLGLDTLNVQQKYKVSDTAATVTGYADTTIALDNSTFKASATGLGGTDQKIDGDLKFDDTTGKYYAKVTVTGGTGKDGYYEVSVDKTNGEVTLAGGATSPLTGGLPATATEDVKNVQVANADLTEAKAALTAAGVTGTASVVKMSYTDNNGKTIDGGLAVKVGDDYYSATQNKDGSISINTTKYTADDGTSKTALNKLGGADGKTEVVSIGGKTYAASKAEGHNFKAQPDLAEAAATTTENPLQKIDAALAQVDTLRSDLGAVQNRFNSAITNLGNTVNNLTSARSRIEDSDYATEVSNMSRAQILQQAGTSVLAQANQVPQNVLSLLR
Regarding B1, the “TLR activation, Optical Density at 650 nm, hTLR5, positive control” value stood at 2.593.

Source of the values: patent US20110111016A1, “NON-DNA BASE-CONTAINING POLYNUCLEOTIDE COMPOSITIONS AND THEIR USE FOR THE MODULATION OF IMMUNE RESPONSES” (priority 2009, published 2011).
